In the nanobody polyreactivity screen of Harvey et al. (2022):

Assay: yeast display, Sf9 membrane polyspecificity reagent, FACS + sequencing; frameworks hold sequencing errors
Procedure, shortened: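 Galactose induction of a Saccharomyces cerevisiae BJ5465 synthetic nanobody display library ran 36–48 hours. The cells were then stained for 1 hour at 4 °C with 10% biotinylated, detergent-solubilized Sf9 membrane reagent, pulled down on streptavidin microbeads and FACS-sorted into low and high (top ~1%) gates on expression and reagent-binding fluorescence. Labels for polyreactivity follow the gate of origin.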

Row | Sequence | polyreactivity (PSR sort gate)
1 | QVQLVESGGGLVQAGGSLRLSCAASGSIYWLYAMGWYRQAPGKERELVAAITWSGGRTYYADSVKGRFTISRDNAKYNVYLQMNSLKPEDTAVYYCARRQRPGYSNPARGGKYDYWGQGTQVTVSS | low polyreactivity
2 | QVQLVESGGGLVQAGGSLRLSCAASGSIYWNTMGWYRQAPGKERELVAGISSSGDSTYYADSVKGRFTISRDNAKNTVYLQMNSLKPEDTAVYYCAARTRRFRYYYWGQGTQVTVSS | high polyreactivity
3 | QVQLVESGGGLVQAGGSLRLSCAASGSIYYYAMGWYRQAPGKEMELVAAITRSGGGTYYADSVKGRFTISRDNAKNTVYLQMNSLKPEDTAVYYCAAARYSRAQPNWTYNYWGQGTQVTVSS | high polyreactivity
4 | QVQLVESGGGLVQAGGSLRLSCAASGSLFQPNDRGWYRQAPGKERELVASIRGRGGDTYYADSVKGRFTISRDNAKNTVYLQMNSLKPEDTGGYDCAADYRWGQGTQVTVSS | low polyreactivity
5 | QVQLVESGGGLVQAGGSLRLSCAASGSLFSGYTMAWYSQAPGKERELVAAITRSGGRTYYADSVKGRFTISRDNAKNTVYLQMKSLKPEVTAVNYCAAVDRRGANYNYWGQGTQVTVSS | high polyreactivity
6 | QVQLVESGGGLVQAGGSLRLSCAASGSLFYSYAMGWDRPAPGKERELVAAIRRDGSTNYADSVKGRFTISRDNAKNTVYLQMNSLKPEDTAVYYCNADGWNTYIGPRRYRYDYWGQGTQVTVSS | low polyreactivity
7 | QVQLVESGGGLVQAGGSLRLSCAASGSLFYVYAMGWYRQAPGKERELVAAITNYADSVKGRFTISRDNAKNTVYLQMNSLKPEDTAVYYCAADWWRVEMDYWGQGSQVTVSS | low polyreactivity
8 | QVQLVESGGGLVQAGGSLRLSCAASGSMFAAYAMGWYRQAPGKARELVAAISSGDGTYYADSVKGRFTISRDNAKNTVYLQRNSLKPEDTAVYYCNAYVSQRYRGSRYYYWGQGTQVTLSS | high polyreactivity
9 | QVQLVESGGGLVQAGGSLRLSCAASGSMFSHYTMGWYRQAPGQERELVAAITNGGITNYADAVKGRFTISRDNAKNTVYLQMNSLKPEDTAVYYCAADWWYGYSNYDYWGQGTQVTVSS | low polyreactivity
10 | QVQLVESGGGLVQAGGSLRLSCAASGSMFVTNALGWYRQAPGTERELVAAMSVSGGSTYYADSVKGRFTISRDNAKNTVDLQMNSLKPEDTAVYYCNTVRSPPGHDYWGQGTQVTVSS | low polyreactivity
11 | QVQLVESGGGLVQAGGSLRLSCAASGSNFAKNAMGWYRQAPGKERELVAAITSSGGSTYYADSVKGRFTISRDNAKNTVYLQMNSLNPEDTAVYYCARPNDWYHYHGWYWSIYRYDYWGQGTQVTVSS | high polyreactivity
12 | QVQLVESGGGLVQAGGSLRLSCAASGSNFDTYAMGWYRQAPGKESELVAAITRRAGSTYYADSVKGRFTISRDNAKYTVYLQMNSLKPEDTAVYYCAADFRYPDNYGGYDYWGQGTQVTVSS | low polyreactivity
13 | QVQLVESGGGLVQAGGSLRLSCAASGSNFGEYAMGWYIQAPGKERELVAAISYRGGSTYYADSVKGRFTISRDNAKNTVYLQMNSLKPEDTAVYYCNRDRRRRGAYGRPGGDHWGQGTQVTVSS | high polyreactivity
14 | QVQLVESGGGLVQAGGSLRLSCAASGSNFGIYAMGWYRQAPGKERELVAAISSRGSTYYADSVKGRFTISRDNAKNTVYLQMNSLKPEDTAVYYCAAGYAWYNYWGQGTQVTVSS | high polyreactivity
15 | QVQLVESGGGLVQAGGSLRLSCAASGSNFGRYVMGWYRQAPGKERELVAAITRTGVRTYYADSVKGRFTISRDNANNTVYLQINSLKPEDTAVYYCNRYGARSNDYWGQGTQVTESS | low polyreactivity
16 | QVQLVESGGGLVQAGGSLRLSCAASGSNFGSNAMGWYRQAPGKERELVATISGRGGSTYYADSVKGRFTISRDNAKNTVYLQMNSLKPEDTAVYYCAKDRRTWRYGQVFSPYYYWGQGTQVTVSS | low polyreactivity
17 | QVQLVESGGGLVQAGGSLRLSCAASGSNFGVNAMGGYRQAPGKERELVAAITSGGGTYYTDSVKGRFTISRDNAKKTVYLQKNSLKPEATAVYYCMARVRGKQLVGRYDYWGQGTQVTVSS | high polyreactivity
